The target of test [1] is T1, HIV YU2 gp120 monomer (HIV-1, UniProt P35961 32-498).
T1 construct: domain: gp120
The test is described as follows: ELISA, antigen coated at 2 ug/ml. On the technique in general: In an ELISA, binding on a coated surface is turned into a signal by an enzyme label.

Test [2] deals with T2, HIV YU2 gp41 monomer (HIV-1, UniProt P35961 499-671).
T2 construct: domain: gp41
Put plainly: ELISA, antigen coated at 2 ug/ml.

Test [3] deals with T3, HIV YU2 gp160 extracellular domain (gp140) foldon trimer (HIV-1, UniProt P35961 32-671).
T3 construct: extracellular domain; also called HIVYU2 gp140 foldon trimer; not shown: foldon trimerisation domain
Put plainly: ELISA, antigen coated at 2 ug/ml.

For test [4], the target named is T4, Sjogren syndrome antigen B (UniProt P05455 1-408).
T4 construct: also called SSB; SS-B/La
T4 sequence (looked up): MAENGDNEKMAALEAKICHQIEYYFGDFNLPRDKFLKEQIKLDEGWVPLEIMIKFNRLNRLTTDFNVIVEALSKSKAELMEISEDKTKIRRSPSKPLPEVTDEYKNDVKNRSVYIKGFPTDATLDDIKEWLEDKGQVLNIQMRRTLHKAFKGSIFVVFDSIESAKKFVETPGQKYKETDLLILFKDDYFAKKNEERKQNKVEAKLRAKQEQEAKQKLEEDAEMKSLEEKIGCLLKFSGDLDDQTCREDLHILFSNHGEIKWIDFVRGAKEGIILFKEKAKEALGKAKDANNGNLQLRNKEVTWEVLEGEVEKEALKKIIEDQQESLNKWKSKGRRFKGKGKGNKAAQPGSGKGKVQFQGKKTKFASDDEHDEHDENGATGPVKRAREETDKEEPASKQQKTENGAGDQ
The test is described as follows: Luminex AtheNA Multi-Lyte ANA test.

The target in test [5] is T5, scleroderma 70 (UniProt P11387 2-765).
T5 construct: also called Scl 70
T5 sequence (looked up): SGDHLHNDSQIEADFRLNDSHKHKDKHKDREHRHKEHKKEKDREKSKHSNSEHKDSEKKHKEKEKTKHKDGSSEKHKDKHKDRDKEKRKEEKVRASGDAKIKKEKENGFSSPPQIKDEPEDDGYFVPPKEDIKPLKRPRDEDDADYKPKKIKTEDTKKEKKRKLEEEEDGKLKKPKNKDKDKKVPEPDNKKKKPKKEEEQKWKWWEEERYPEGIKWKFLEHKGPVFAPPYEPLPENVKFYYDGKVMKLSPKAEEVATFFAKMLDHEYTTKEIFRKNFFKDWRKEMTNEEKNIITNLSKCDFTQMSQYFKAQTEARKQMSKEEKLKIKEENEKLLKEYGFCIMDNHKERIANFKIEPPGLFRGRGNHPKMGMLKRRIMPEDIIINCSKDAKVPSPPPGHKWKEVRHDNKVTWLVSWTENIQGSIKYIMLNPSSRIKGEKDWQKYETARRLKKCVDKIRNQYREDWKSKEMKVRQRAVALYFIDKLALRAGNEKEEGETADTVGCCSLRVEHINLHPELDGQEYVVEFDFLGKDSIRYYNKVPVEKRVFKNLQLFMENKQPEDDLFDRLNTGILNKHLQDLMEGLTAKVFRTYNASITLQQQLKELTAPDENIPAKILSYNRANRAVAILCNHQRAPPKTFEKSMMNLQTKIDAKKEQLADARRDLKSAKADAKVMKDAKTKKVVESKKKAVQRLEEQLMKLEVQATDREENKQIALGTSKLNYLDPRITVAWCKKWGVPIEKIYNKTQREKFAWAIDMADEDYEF
Put plainly: Luminex AtheNA Multi-Lyte ANA test.

The target in test [6] is T6, centromere B (UniProt P07199 2-599).
T6 construct: also called CentrB
T6 sequence (looked up): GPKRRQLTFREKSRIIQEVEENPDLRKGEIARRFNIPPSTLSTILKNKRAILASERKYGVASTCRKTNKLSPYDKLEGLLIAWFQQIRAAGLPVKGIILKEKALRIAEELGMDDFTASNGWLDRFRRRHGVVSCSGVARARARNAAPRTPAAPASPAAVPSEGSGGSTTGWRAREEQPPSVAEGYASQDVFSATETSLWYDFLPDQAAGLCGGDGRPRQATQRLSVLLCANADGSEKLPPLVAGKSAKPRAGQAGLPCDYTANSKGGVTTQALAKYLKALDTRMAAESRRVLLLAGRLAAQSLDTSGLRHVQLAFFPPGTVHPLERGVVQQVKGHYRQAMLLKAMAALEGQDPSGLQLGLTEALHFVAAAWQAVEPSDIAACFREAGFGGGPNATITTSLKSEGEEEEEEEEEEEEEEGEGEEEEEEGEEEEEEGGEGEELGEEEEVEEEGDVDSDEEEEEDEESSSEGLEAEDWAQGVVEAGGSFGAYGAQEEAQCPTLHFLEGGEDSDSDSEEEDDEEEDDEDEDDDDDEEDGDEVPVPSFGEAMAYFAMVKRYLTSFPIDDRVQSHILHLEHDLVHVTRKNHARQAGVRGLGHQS
The test is described as follows: Luminex AtheNA Multi-Lyte ANA test.

Test [7] addresses T7, Jo1 antigen (UniProt P12081 2-509).
T7 sequence (looked up): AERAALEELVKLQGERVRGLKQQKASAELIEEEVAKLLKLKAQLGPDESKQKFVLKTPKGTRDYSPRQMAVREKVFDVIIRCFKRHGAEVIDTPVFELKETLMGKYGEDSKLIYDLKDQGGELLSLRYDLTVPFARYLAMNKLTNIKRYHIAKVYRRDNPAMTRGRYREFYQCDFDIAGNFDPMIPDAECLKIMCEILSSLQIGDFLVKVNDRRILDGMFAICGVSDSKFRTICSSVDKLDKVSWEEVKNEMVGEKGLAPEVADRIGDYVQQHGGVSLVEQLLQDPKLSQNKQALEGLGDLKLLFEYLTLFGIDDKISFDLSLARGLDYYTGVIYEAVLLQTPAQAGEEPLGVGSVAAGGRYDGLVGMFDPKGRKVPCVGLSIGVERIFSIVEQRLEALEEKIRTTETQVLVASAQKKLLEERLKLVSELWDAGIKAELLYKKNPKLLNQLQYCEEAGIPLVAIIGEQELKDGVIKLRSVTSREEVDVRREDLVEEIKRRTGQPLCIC
Put plainly: Luminex AtheNA Multi-Lyte ANA test.

In test [8] the target is T8, BG505 SOSIP.664 trimer (HIV-1).
T8 construct: domain: gp120;domain: gp41 ectodomain; also called soluble BG505 SOSIP
Put plainly: SPR, trimer immobilized by anti-histidine capture, Biacore 3000, 25 C (FIG. 2D). A general note: In SPR one partner is held on a chip, and binding of the other changes the refractive index at the surface.

In general, Kd refers to a measure of binding affinity in units of concentration. Lower therefore signals tighter binding.

B1: 35022 antibody (antibody, V domains shown)
VH: QGQLVQSGAELKKPGASVKISCKTSGYRFNFYHINWIRQTAGRGPEWMGWISPYSGDKNLAPAFQDRVIMTTDTEVPVTSFTSTGAAYMEIRNLKFDDTGTYFCAKGLLRDGSSTWLPYLWGQGTLLTVSS
VL: QSVLTQSASVSGSLGQSVTISCTGPNSVCCSHKSISWYQWPPGRAPTLIIYEDNERAPGISPRFSGYKSYWSAYLTISDLRPEDETTYYCCSYTHNSGCVFGTGTKVSVL
notes: also called 35022 mAb
Regarding B1, the binding result in test [1], in test [2], in test [3], in test [4], in test [5] and in test [6] was “no binding” in each case. For the same molecule, in test [7], the binding result was “no binding”. Also, in test [8], the affinity, expressed as Kd, was 5.6 nM.
